For assay [1], the target named is T1, recombinant human GPC1 (rhGPC1) (human, UniProt P35052 24-530, limits assumed).
T1 sequence (looked up): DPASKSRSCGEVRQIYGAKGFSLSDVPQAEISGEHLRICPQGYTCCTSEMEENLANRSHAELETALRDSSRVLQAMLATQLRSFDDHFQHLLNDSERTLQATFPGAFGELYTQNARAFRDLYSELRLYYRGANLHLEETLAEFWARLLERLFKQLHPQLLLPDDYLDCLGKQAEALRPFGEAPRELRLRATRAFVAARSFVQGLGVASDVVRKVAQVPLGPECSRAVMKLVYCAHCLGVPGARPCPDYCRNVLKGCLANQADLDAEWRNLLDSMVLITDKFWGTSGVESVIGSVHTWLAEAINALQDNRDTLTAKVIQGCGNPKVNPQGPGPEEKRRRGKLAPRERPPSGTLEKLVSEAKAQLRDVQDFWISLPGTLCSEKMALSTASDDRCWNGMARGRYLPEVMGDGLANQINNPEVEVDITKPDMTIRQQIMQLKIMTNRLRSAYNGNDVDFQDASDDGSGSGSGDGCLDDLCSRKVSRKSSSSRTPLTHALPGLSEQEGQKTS
Kind of assay: ELISA, antigen coated 100 ng/well, HRP anti-human Fc detection. Here is the method: (§1) In order to analyze the binding specificity of P7D4 series antibody to GPC3 protein, binding activity of P7D4 series single chain antibody to human GPC family members, including recombinant human GPC1 (rhGPC1), GPC2 (rhGPC2), GPC3 (rhGPC3), GPC5 (rhGPC5) and GPC6 (rhGPC6) (purchased from Andy Biosciences (Shanghai) Co., Ltd.) was detected by ELISA, respectively.
(§2) For this purpose, the above 5 antigens were diluted with 0.1 M NaHCO₃ (pH 9.6) coating solution and each well was coated with 100 ng at 50 μl/well overnight at 4° C. and blocked with 2% (w/v) BSA in PBST for 2 hours at room temperature. The plate was then rinsed for three times with PBST and PBST was removed. Subsequently, 100 ng of each antibody protein in PBST was added to each well plate, and the assay for each sample was performed in duplecate wells. After incubated for 2 hours at 37° C., the plates were rinsed for three times with PBST followed by addition of 100 μl/well HRP-labeled rabbit anti-human Fc antibody (purchased from Shanghai Rui Jin Biotechnology Co., Ltd.) diluted at 1:20000 and incubated at 37° C. for 1 hour. For detection, wells were rinsed for three times with PBST followed by three times with PBS and finally with TMB for development for 10 min. The chromogenic reaction was stopped with 50 μl of 2 M H₂SO₄ per well, and extinction value was measured at 450 nm with enzyme-linked immunodetector (Bio-Rad).
A general note: ELISA stands for enzyme-linked immunosorbent assay.

In assay [2] the target is T2, recombinant human GPC2 (rhGPC2) (human, UniProt Q8N158 24-554, limits assumed).
T2 sequence (looked up): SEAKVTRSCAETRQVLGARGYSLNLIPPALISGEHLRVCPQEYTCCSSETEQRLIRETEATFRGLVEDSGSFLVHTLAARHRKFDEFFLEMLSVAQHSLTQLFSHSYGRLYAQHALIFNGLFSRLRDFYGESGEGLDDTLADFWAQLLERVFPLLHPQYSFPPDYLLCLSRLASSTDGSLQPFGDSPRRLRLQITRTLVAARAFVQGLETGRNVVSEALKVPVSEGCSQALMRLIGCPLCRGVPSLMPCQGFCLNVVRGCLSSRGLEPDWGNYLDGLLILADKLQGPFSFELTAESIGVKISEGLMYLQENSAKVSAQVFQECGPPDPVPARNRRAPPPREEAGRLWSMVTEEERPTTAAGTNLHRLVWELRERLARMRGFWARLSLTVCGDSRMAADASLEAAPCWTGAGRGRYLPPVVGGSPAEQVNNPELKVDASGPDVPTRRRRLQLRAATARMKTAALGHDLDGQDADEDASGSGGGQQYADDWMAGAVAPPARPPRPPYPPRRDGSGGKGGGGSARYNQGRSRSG
The assay is described as above. Here is the method: as §1, §2

The target in assay [3] is T3, recombinant human GPC5 (rhGPC5) (human, UniProt P78333 25-551, limits assumed).
T3 sequence (looked up): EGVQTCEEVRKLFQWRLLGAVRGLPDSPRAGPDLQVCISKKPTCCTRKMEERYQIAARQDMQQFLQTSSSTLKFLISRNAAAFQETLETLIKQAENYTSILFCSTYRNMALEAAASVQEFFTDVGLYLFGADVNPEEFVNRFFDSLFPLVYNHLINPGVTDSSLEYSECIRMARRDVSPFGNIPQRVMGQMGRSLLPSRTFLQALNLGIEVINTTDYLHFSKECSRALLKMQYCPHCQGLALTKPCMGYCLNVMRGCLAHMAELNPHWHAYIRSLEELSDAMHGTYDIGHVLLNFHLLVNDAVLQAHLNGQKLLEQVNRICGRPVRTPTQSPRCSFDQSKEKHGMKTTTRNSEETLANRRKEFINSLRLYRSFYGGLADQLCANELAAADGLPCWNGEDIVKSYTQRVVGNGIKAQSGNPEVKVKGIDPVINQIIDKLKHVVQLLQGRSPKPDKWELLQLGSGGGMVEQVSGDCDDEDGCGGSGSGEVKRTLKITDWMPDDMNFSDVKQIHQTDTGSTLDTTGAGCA
Described as above. Here is the method:
as §1, §2

Assay [4] deals with T4, recombinant human GPC6 (rhGPC6) (human, UniProt Q9Y625 24-529, limits assumed).
T4 sequence (looked up): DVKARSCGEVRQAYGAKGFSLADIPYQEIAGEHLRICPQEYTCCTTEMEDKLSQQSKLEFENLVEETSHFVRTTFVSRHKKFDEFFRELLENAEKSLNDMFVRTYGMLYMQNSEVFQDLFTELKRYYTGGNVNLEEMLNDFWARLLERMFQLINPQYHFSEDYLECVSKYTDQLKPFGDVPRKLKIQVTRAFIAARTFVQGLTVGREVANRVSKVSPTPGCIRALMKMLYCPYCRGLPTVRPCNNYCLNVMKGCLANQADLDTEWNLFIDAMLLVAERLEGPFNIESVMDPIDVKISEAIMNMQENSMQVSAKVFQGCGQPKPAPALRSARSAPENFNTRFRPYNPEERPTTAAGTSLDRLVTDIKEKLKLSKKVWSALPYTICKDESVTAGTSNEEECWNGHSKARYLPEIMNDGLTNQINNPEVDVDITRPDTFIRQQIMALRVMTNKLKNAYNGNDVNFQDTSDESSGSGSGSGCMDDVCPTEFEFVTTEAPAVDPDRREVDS
The description is as above. Here is the method: as §1, §2

Assay [5] addresses T5, human GPC3 recombinant protein (purchased from Shanghai Rui Jin Biotechnology Co., Ltd.) (human, UniProt P51654 25-559, limits assumed).
T5 construct: Bought recombinant protein; also called huGPC3; antigen GPC3
Nature of the assay: SPR Biacore T200, antibody captured by anti-human IgG (Fc), GPC3 as analyte, single-cycle kinetics, 25 °C. Here is the method: To quantitatively analyze the binding of P7D4 series antibodies to GPC3, the affinity and kinetic parameters of P7D4 series single-chain antibodies were measured by capture method using Biacore T200 system (from GE). An anti-human IgG (Fc) antibody (purchased from GE) was coupled to carboxymethyl dextran surface of sensor chip CM5 through primary amino with NHS/EDC coupling according to the manufacturer's instructions. Measurements were performed in 1×HBS-EP+working buffer at 25° C., 30 μl/min, and regeneration condition was 3 M MgCl₂, 10 μl/min for 30 seconds. In each round of the testing cycle, the antibody to be tested is firstly captured onto the chip. GPC3 of a certain concentration flowed over the chip surface. The interaction between human GPC3 and the captured antibody caused the change of the molecular concentration on the surface of the sensor chip which was measured according to changes in SPR Signal and expressed in resonance units (RU). Time vs resonance unit (RU) was plotted. The resulting sensorgram documents the entire reaction including the binding and dissociation processes (FIG. 4). In all single-cycle kinetics, GPC3 concentrations were 5 nM, 10 nM, 20 nM, 40 nM and 80 nM, respectively. The resulting curves were evaluated using Biacore T200 evaluation software and the affinity KD values were calculated.
A general note: Surface plasmon resonance follows binding to a sensor surface in real time, without labels.

B1: P7D4 mutant single chain antibody am4 (scFv, not shown: a dimerising Fc or GST)
scFv: QVQLQESGGGLVQPGRSLRLSCAASGFTFSTYAMTWVRQAPGKGLEWVSSISSSGESTYYADSVKGRFTISRDNSKNTLYLQMNSLRAEDTAVYYCAKDRRGSHADAFDVWGQGTLVTVSSGGGGSGGGGSGGGGSQSALTQPPSASGSPGQSVTISCTGTSSDVGGYNYVSWYQQYPGKAPKLLIYGNSNRPSGVPDRFSGSKSGTSASLAITGLQAEDGADYYCQSYDSSLRVVFGGGTKVTVLG
By Kd is commonly meant the constant that tells how readily two partners part at equilibrium. What is called koff is the first-order rate constant of dissociation. The term kon denotes the second-order rate constant of association. With B1, the binding result in assay [1], in assay [2], in assay [3] and in assay [4] was “no binding (tested: 100 ng of each antibody protein per well)” in each case. Besides, in assay [5], the equilibrium dissociation constant (Kd) came to 0.0756 nM. In addition, in assay [5], the off-rate (koff) stood at 4.08e-05 s⁻¹. Further, the kon in assay [5] was found to be 539000 M⁻¹ s⁻¹.

B2: P7D4 mutant single chain antibody am14 (scFv, not shown: a dimerising Fc or GST)
scFv: QVQLQESGGGLVQPGRSLRLSCAASGFTFSTYAMAWVRQAPGKGLEWVSEISSSGSRTYYADSVKGRFTISRDNSKNTLYLQMNSLRAEDTAVYYCAKDRRGSHADAFDVWGQGTLVTVSSGGGGSGGGGSGGGGSQSALTQPPSASGSPGQSVTISCTGTSSDVGGYNYVSWYQQYPGKAPKLLIYGNSNRPSGVPDRFSGSKSGTSASLAITGLQAEDGADYYCQSYDSSLRVVFGGGTKVTVLG
With B2, the binding result in assay [1], in assay [2], in assay [3] and in assay [4] was “no binding (tested: 100 ng of each antibody protein per well)” throughout. Further, in assay [5], the Kd came out at 0.0646 nM. For the same molecule, the koff in assay [5] was 4.43e-05 s⁻¹. In addition, in assay [5], the kon was 673000 M⁻¹ s⁻¹.

B3: P7D4 mutant single chain antibody T2-23 (scFv, not shown: a dimerising Fc or GST)
scFv: QVQLQESGGGLVQPGRSLRLSCAASGFTFSSYAMHWVRQAPGKGLEWVSAISSSGRSTYYADSVEGRFTISRDNSKNTLYLQMNSLRAEDTAVYYCAKDRRGSHADALNVWGQGTLVTVSSGGGGSGGGGSGGGGSQSALTQPPSASGSPGQSVTISCTGTSSDVGGYNYVSWYQQYPGKAPKLLIYGNSNRPSGVPDRFSGSKSGTSASLAITGLQAEDGADYYCQSYDSSLRVVFGGGTKVTVLG
Turning to B3, the binding result in assay [1], in assay [2], in assay [3] and in assay [4] was “no binding (tested: 100 ng of each antibody protein per well)” in each case.

B4: P7D4 mutant single chain antibody am20 (scFv, not shown: a dimerising Fc or GST)
scFv: QVQLQESGGGLVQPGRSLRLSCAASGFTFSTYAMNWVRQAPGKGLEWVSAISMSGESTYYADSVKGRFTISRDNSKNTLYLQMNSLRAEDTAVYYCAKDRRGSHADAFDVWGQGTLVTVSSGGGGSGGGGSGGGGSQSALTQPPSASGSPGQSVTISCTGTSSDVGGYNYVSWYQQYPGKAPKLLIYGNSNRPSGVPDRFSGSKSGTSASLAITGLQAEDGADYYCQSYDSSLRVVFGGGTKVTVLG
For B4, the binding result in assay [1], in assay [2], in assay [3] and in assay [4] was “no binding (tested: 100 ng of each antibody protein per well)” each time. The Kd in assay [5] stood at 0.306 nM. Also, the koff in assay [5] came out at 6.47e-05 s⁻¹. The on-rate (kon) in assay [5] was determined as 212000 M⁻¹ s⁻¹.

B5: P7D4 mutant single chain antibody am35 (scFv, not shown: a dimerising Fc or GST)
scFv: QVQLQESGGGLVQPGRSLRLSCAASGFTFSSYAMHWVRQAPGKGLEWVSAISSSGGSTYYADSVKGRFTISRDNSKNTLYLQMNSLRAEDTAVYYCAKDRRGSHADAFDVWGQGTLVTVSSGGGGSGGGGSGGGGSQSALTQPPSASGSPGQSVTISCTGTSSDVGHKFPVSWYQQYPGKAPKLLIYKNLLRPSGVPDRFSGSKSGTSASLAITGLQAEDGADYYCQSYDSSLRVVFGGGTKVTVLG
As for B5, the binding result in assay [1], in assay [2], in assay [3] and in assay [4] was “no binding (tested: 100 ng of each antibody protein per well)” in each case. In addition, the Kd in assay [5] was 0.0714 nM. In addition, the koff in assay [5] turned out to be 5.2e-05 s⁻¹. In addition, in assay [5], the kon was found to be 738000 M⁻¹ s⁻¹.

(Values after patent US20240342305A1 (published 2024).)
